Results taken from article PMC9482650, “Quantitative fragmentomics allow affinity mapping of interactomes” (Nature Communications, 2022).

T1: PDZD2_2, O15018
T1 sequence (O15018 329-429, limits assumed, looked up): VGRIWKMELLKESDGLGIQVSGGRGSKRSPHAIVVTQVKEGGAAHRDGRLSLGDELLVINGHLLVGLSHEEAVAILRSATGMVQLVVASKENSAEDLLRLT

T2: MPP7, Q5T2T1
T2 sequence (Q5T2T1 134-230, limits assumed, looked up): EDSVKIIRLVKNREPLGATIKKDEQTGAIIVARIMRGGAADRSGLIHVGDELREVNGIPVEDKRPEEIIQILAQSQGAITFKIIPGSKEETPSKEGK

T3: HTRA3, P83110
T3 sequence (P83110 354-453, limits assumed, looked up): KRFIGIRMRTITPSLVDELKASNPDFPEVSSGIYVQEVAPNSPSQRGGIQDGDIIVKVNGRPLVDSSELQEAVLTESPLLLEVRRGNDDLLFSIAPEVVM

T4: SNTB1, Q13884
T4 sequence (Q13884 107-205, limits assumed, looked up): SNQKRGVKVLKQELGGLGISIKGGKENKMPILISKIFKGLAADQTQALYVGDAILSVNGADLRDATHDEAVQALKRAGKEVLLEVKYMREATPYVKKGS

T5: PCLO, Q9Y6V0
T5 sequence (Q9Y6V0 4491-4600, limits assumed, looked up): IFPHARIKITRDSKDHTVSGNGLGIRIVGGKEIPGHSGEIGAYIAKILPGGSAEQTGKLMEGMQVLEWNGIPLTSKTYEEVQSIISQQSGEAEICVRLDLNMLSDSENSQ

T6: GRIP1_3, Q9Y3R0
T6 sequence (Q9Y3R0 247-346, limits assumed, looked up): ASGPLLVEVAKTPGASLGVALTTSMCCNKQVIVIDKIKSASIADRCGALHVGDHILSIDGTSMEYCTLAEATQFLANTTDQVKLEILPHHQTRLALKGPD

T7: DFNB31_1, Q9P202
T7 sequence (Q9P202 135-233, limits assumed, looked up): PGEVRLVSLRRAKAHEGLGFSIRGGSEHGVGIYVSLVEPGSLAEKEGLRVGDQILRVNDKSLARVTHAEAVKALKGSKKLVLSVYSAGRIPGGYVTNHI

T8: LIN7B, Q9HAP6
T8 sequence (Q9HAP6 88-185, limits assumed, looked up): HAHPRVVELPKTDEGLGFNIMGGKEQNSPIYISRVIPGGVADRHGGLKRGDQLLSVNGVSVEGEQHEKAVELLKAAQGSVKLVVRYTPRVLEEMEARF

T9: GRIP1_7, Q9Y3R0
T9 sequence (Q9Y3R0 999-1096, limits assumed, looked up): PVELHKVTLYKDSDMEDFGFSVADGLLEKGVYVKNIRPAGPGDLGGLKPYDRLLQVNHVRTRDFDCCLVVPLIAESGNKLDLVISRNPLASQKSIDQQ

T10: APBA2_1, Q99767
T10 sequence (Q99767 563-664, limits assumed, looked up): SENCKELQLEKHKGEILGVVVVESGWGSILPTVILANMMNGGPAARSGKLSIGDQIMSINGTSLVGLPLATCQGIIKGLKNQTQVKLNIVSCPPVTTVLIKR

T11: GRIP1_4, Q9Y3R0
T11 sequence (Q9Y3R0 467-571, limits assumed, looked up): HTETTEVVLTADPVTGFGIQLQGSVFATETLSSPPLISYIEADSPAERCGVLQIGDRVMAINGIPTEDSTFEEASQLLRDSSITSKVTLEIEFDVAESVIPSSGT

T12: DLG3_2, Q92796
T12 sequence (Q92796 221-321, limits assumed, looked up): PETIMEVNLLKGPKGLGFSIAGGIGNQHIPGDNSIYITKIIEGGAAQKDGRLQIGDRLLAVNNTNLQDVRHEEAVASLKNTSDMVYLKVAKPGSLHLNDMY


Columns and labels:
Assay in all cases: holdup assay
Parameters in all cases: key: below the threshold = too weak to quantify, mostly under pKd 3.1 to 4
Conditions in all cases: plain residues with an end cap or a label only (N-terminal biotin on a linker: ttds)
NHERF4_1, Q86UT5-2 = target: NHERF4_1, Q86UT5-2
Sequence of NHERF4_1, Q86UT5-2 (Q86UT5 other isoform, or with tags, fused parts or gaps): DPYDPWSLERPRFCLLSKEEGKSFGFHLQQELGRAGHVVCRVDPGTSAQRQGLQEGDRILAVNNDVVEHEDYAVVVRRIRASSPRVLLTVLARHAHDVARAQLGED

Inadl_10, Q8NI35 = target: Inadl_10, Q8NI35
Sequence of Inadl_10, Q8NI35 (Q8NI35 1673-1763): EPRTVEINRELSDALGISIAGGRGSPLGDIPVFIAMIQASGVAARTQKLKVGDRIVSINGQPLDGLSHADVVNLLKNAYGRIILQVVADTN

PDZD2_2, O15018 = target: T1, PDZD2_2, O15018
MPP7, Q5T2T1 = target: T2, MPP7, Q5T2T1
GORASP1, Q9BQQ3 = target: GORASP1, Q9BQQ3
Sequence of GORASP1, Q9BQQ3 (Q9BQQ3 1-208): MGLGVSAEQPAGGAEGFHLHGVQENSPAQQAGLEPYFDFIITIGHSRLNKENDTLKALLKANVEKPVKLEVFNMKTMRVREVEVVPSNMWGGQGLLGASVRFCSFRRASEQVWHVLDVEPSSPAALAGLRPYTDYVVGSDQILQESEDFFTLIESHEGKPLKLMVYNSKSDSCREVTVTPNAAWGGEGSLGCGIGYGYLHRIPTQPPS

HTRA3, P83110 = target: T3, HTRA3, P83110
SNTB1, Q13884 = target: T4, SNTB1, Q13884
PCLO, Q9Y6V0 = target: T5, PCLO, Q9Y6V0
DLG2_3, Q15700 = target: DLG2_3, Q15700
GRIP1_3, Q9Y3R0 = target: T6, GRIP1_3, Q9Y3R0
AHNAK1, Q09666 = target: AHNAK1, Q09666
Sequence of AHNAK1, Q09666 (Q09666 4-100): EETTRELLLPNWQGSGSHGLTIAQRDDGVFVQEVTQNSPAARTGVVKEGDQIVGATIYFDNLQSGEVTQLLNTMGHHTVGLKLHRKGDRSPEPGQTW

Inadl_1, Q8NI35 = target: Inadl_1, Q8NI35
Sequence of Inadl_1, Q8NI35 (Q8NI35 113-229): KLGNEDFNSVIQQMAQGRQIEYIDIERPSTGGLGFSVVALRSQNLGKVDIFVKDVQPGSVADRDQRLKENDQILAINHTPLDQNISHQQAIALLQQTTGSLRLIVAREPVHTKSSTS

SCRIB_3, Q14160 = target: SCRIB_3, Q14160
Sequence of SCRIB_3, Q14160 (Q14160 999-1103): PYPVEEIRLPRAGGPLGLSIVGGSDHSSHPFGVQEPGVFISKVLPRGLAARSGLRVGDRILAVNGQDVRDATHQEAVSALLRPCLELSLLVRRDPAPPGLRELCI

DFNB31_1, Q9P202 = target: T7, DFNB31_1, Q9P202
LNX1_3, Q8TBB1 = target: LNX1_3, Q8TBB1
Sequence of LNX1_3, Q8TBB1 (Q8TBB1 500-596): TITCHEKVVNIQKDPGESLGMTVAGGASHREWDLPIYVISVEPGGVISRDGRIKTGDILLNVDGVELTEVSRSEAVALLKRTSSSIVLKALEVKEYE

LIN7B, Q9HAP6 = target: T8, LIN7B, Q9HAP6
DLG1_1, Q12959 = target: DLG1_1, Q12959
DLG1_2, Q12959 = target: DLG1_2, Q12959
GRIP1_7, Q9Y3R0 = target: T9, GRIP1_7, Q9Y3R0
Inadl_5, Q8NI35 = target: Inadl_5, Q8NI35
Sequence of Inadl_5, Q8NI35 (Q8NI35 673-780): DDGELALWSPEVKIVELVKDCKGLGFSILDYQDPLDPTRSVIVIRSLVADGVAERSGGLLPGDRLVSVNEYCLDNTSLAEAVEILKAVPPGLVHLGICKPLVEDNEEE

APBA2_1, Q99767 = target: T10, APBA2_1, Q99767
PICK1, Q9NRD5 = target: PICK1, Q9NRD5
Sequence of PICK1, Q9NRD5 (Q9NRD5 17-115): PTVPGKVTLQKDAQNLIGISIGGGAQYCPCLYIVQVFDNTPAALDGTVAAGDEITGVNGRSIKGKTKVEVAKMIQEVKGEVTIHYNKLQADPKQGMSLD

GRIP1_4, Q9Y3R0 = target: T11, GRIP1_4, Q9Y3R0
DLG3_2, Q92796 = target: T12, DLG3_2, Q92796
Inadl_9, Q8NI35 = target: Inadl_9, Q8NI35
Sequence of Inadl_9, Q8NI35 (Q8NI35 1530-1615): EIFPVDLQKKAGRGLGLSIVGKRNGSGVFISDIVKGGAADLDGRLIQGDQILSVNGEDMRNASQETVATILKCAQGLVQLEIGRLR

PDZRN4_1, Q6ZMN7 = target: PDZRN4_1, Q6ZMN7
Sequence of PDZRN4_1, Q6ZMN7 (Q6ZMN7 213-318): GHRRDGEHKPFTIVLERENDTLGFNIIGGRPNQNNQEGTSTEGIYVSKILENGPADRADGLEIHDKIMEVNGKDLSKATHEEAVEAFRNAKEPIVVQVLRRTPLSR

| Binder | pKd (NHERF4_1, Q86UT5-2) | pKd (Inadl_10, Q8NI35) | pKd (PDZD2_2, O15018) | pKd (MPP7, Q5T2T1) | pKd (GORASP1, Q9BQQ3) | pKd (HTRA3, P83110) | pKd (SNTB1, Q13884) | pKd (PCLO, Q9Y6V0) | pKd (DLG2_3, Q15700) | pKd (GRIP1_3, Q9Y3R0) | pKd (AHNAK1, Q09666) | pKd (Inadl_1, Q8NI35) | pKd (SCRIB_3, Q14160) | pKd (DFNB31_1, Q9P202) | pKd (LNX1_3, Q8TBB1) | pKd (LIN7B, Q9HAP6) | pKd (DLG1_1, Q12959) | pKd (DLG1_2, Q12959) | pKd (GRIP1_7, Q9Y3R0) | pKd (Inadl_5, Q8NI35) | further results |
| --- | --- | --- | --- | --- | --- | --- | --- | --- | --- | --- | --- | --- | --- | --- | --- | --- | --- | --- | --- | --- | --- |
| TEEEVQDTRL [CFTR, P13569] | below the threshold | below the threshold | below the threshold | below the threshold | below the threshold | below the threshold | 4.2 | below the threshold | below the threshold | below the threshold | below the threshold | below the threshold | below the threshold | 3.79 | below the threshold | below the threshold | below the threshold | below the threshold | 3.74 | below the threshold | pKd (APBA2_1, Q99767): below the threshold; pKd (PICK1, Q9NRD5): below the threshold; pKd (GRIP1_4, Q9Y3R0): below the threshold; pKd (DLG3_2, Q92796): below the threshold; pKd (Inadl_9, Q8NI35): below the threshold; pKd (PDZRN4_1, Q6ZMN7): 3.99 |
| DEDQHTQITKV [PTEN, P60484] | 3.51 | 3.58 | 3.71 | below the threshold | 3.88 | below the threshold | 4.08 | below the threshold | below the threshold | below the threshold | below the threshold | 3.77 | 3.94 | 3.86 | below the threshold | 3.49 | 3.64 | 3.97 | below the threshold | below the threshold | pKd (APBA2_1, Q99767): below the threshold; pKd (PICK1, Q9NRD5): 3.77; pKd (GRIP1_4, Q9Y3R0): below the threshold; pKd (DLG3_2, Q92796): 4.04; pKd (Inadl_9, Q8NI35): below the threshold; pKd (PDZRN4_1, Q6ZMN7): 3.62 |

Now from value to binder, other results behind:

| pKd (NHERF4_1, Q86UT5-2) | pKd (Inadl_10, Q8NI35) | pKd (PDZD2_2, O15018) | pKd (MPP7, Q5T2T1) | pKd (GORASP1, Q9BQQ3) | pKd (HTRA3, P83110) | pKd (SNTB1, Q13884) | pKd (PCLO, Q9Y6V0) | pKd (DLG2_3, Q15700) | pKd (GRIP1_3, Q9Y3R0) | pKd (AHNAK1, Q09666) | pKd (Inadl_1, Q8NI35) | pKd (SCRIB_3, Q14160) | pKd (DFNB31_1, Q9P202) | pKd (LNX1_3, Q8TBB1) | pKd (LIN7B, Q9HAP6) | pKd (DLG1_1, Q12959) | pKd (DLG1_2, Q12959) | pKd (GRIP1_7, Q9Y3R0) | pKd (Inadl_5, Q8NI35) | Binder | further results |
| --- | --- | --- | --- | --- | --- | --- | --- | --- | --- | --- | --- | --- | --- | --- | --- | --- | --- | --- | --- | --- | --- |
| 3.57 | below the threshold | 3.55 | 3.61 | below the threshold | below the threshold | 4.14 | below the threshold | 3.49 | below the threshold | below the threshold | below the threshold | 4.36 | 3.53 | 3.66 | below the threshold | below the threshold | 3.7 | 3.85 | below the threshold | RRVRKLPSTTL [RPS6KA1, Q15418] | pKd (APBA2_1, Q99767): below the threshold; pKd (PICK1, Q9NRD5): below the threshold; pKd (GRIP1_4, Q9Y3R0): below the threshold; pKd (DLG3_2, Q92796): below the threshold; pKd (Inadl_9, Q8NI35): below the threshold; pKd (PDZRN4_1, Q6ZMN7): 4.13 |
| below the threshold | below the threshold | 3.59 | below the threshold | below the threshold | below the threshold | 4.29 | below the threshold | below the threshold | below the threshold | below the threshold | below the threshold | below the threshold | below the threshold | below the threshold | below the threshold | 4.06 | 4.29 | below the threshold | below the threshold | CNTVTVETVV [MAS1, P04201] | pKd (APBA2_1, Q99767): below the threshold; pKd (PICK1, Q9NRD5): below the threshold; pKd (GRIP1_4, Q9Y3R0): below the threshold; pKd (DLG3_2, Q92796): 4.53; pKd (Inadl_9, Q8NI35): below the threshold; pKd (PDZRN4_1, Q6ZMN7): below the threshold |
| 4.04 | below the threshold | below the threshold | below the threshold | below the threshold | below the threshold | 5.42 | below the threshold | 4.69 | below the threshold | below the threshold | 4.12 | 5.6 | 4.44 | below the threshold | 4.68 | 4.74 | 5.37 | below the threshold | below the threshold | NYWPGKETQL [SLCO1C1, Q9NYB5] | pKd (APBA2_1, Q99767): below the threshold; pKd (PICK1, Q9NRD5): below the threshold; pKd (GRIP1_4, Q9Y3R0): below the threshold; pKd (DLG3_2, Q92796): 4.88; pKd (Inadl_9, Q8NI35): below the threshold; pKd (PDZRN4_1, Q6ZMN7): 5.47 |
